{"source": "patent US20160194407A1", "about": "(AstraZeneca / MedImmune, published 2016)", "binders": {"B1": {"name": "MEDI9447 (antibody, V domains shown)", "VH": "EVQLLESGGGLVQPGGSLRLSCAASGFTFSSYAYSWVRQAPGKGLEWVSAISGSGGRTYYADSVKGRFTISRDNSKNTLYLQMNSLRAEDTAVYYCARLGYGRVDEWGRGTLVTVSS", "VL": "QSVLTQPPSASGTPGQRVTISCSGSLSNIGRNPVNWYQQLPGTAPKLLIYLDNLRLSGVPDRFSGSKSGTSASLAISGLQSEDEADYYCATWDDSHPGWTFGGGTKLTVL", "notes": "also called clone 10.3 antibody; 73combo3"}}, "key": {"[1]": {"biological_target": "T1, recombinant mature human CD73 (amino acid positions 1-526) with C-terminal 6x-histidine tag (human, UniProt P21589 27-553)", "T1 sequence": "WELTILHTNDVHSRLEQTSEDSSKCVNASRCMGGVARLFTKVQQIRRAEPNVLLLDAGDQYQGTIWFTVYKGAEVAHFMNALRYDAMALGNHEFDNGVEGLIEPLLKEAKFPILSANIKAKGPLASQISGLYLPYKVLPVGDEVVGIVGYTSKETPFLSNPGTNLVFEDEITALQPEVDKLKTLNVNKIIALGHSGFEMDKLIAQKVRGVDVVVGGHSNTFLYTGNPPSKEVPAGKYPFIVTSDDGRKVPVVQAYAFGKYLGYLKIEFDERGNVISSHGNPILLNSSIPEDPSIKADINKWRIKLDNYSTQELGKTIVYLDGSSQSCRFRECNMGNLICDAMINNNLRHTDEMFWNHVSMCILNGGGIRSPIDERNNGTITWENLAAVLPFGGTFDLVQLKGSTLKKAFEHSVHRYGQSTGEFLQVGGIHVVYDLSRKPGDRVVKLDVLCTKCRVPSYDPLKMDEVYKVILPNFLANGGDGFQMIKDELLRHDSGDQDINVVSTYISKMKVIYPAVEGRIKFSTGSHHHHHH", "experiment": "cell-based or functional assay"}, "cynomolgus CD73 on cells [2]": {"biological_target": "T2, cynomolgus CD73 on cells (cynomolgus)", "T2 construct": "whole, on cells; also called native CD73 on MK-1 cells (cynomolgus)", "experiment": "flow cytometry on MK-1 cells, one-site fit of median fluorescence"}, "CD73 chimera KO_Linker": {"biological_target": "T3, CD73 chimera KO_Linker (human; chicken (Gallus gallus))", "T3 construct": "Human limits converted from mature numbering (+26); also called KO_292-310; linker region-swapped CD73", "T3 chain": "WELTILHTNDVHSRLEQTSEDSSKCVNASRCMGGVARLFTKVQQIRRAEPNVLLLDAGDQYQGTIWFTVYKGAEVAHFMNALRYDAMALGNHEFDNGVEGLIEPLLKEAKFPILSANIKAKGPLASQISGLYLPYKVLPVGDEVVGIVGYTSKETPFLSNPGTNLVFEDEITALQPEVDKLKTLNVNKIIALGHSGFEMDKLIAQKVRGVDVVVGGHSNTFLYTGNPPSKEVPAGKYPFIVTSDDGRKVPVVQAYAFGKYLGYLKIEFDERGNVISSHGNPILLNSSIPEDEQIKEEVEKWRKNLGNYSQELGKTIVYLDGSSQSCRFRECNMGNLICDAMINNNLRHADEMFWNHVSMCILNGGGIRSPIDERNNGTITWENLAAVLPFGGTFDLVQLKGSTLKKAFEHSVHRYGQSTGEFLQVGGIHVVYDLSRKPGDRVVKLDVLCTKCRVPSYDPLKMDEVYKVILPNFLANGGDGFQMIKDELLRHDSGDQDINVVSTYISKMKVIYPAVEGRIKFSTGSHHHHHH", "experiment": "SPR ProteOn, His-tagged CD73 variant on HTG chip"}, "cynomolgus CD73 on cells [3]": {"biological_target": "T2, cynomolgus CD73 on cells", "experiment": "flow cytometry on MK-1 cells, IgG1-TM"}}}
{"binder": "B1", "values": [{"measurement": "inhibition of sCD73 hydrolysis of AMP (CellTiterGlo), dose response", "setting": "[1]", "value": "~1 IgG per sCD73 dimer (molar ratio)"}, {"measurement": "Kd", "setting": "cynomolgus CD73 on cells [2]", "value": 0.084, "unit": "nM"}, {"measurement": "kon", "setting": "CD73 chimera KO_Linker", "value": "5.57e+06", "unit": "M⁻¹ s⁻¹"}, {"measurement": "Kd", "setting": "cynomolgus CD73 on cells [3]", "value": 0.084, "unit": "nM"}]}
